US20150299296A1 (Chugai, published 2015)

T1: human FcγRIIa type H extracellular domain with C-terminal His tag (human, UniProt P12318 34-217)
T1 construct: extracellular domain; also called FcgRIIaH; FcγRIIa H
T1 sequence (looked up): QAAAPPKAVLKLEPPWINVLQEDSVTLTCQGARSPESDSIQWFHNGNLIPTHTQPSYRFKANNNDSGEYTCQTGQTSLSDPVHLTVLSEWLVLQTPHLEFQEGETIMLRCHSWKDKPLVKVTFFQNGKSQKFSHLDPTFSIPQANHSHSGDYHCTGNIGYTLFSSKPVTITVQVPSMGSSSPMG


Assays:
[1] = molecular target: T1, human FcγRIIa type H extracellular …; test: SPR
[2] = molecular target: T2, human FcγRIa extracellular domain with C-terminal His tag (human, UniProt P12314 16-292); test: SPR
T2 construct: Whole entry named; also called FcgRIa; FcgIa

[3] = molecular target: T3, human FcγRIIIa type V extracellular domain with C-terminal His tag (human, UniProt P08637 17-208); test: SPR
T3 construct: extracellular domain; also called FcgRIIIaV; FcγRIIIaV

[4] = molecular target: T2, human FcγRIa extracellular domain with …; test: SPR (Biacore): antibody captured on the chip, FcγR as analyte; amount bound divided by amount of antibody captured, relative to the antibody without mutation in B3 = 100 (Reference Examples 2 and 3)
[5] = molecular target: T4, FcγRIIIa extracellular domain with C-terminal His tag, allotype not stated (Reference Example 4) (human, UniProt P08637 17-208); test: as above
T4 construct: extracellular domain
T4 sequence (P08637 17-208): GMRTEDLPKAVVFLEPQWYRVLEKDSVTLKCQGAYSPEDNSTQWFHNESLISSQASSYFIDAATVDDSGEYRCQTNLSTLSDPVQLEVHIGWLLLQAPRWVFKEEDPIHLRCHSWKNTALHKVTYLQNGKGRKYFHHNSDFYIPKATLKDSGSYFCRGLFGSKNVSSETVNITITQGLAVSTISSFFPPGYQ

T2 sequence (P12314 16-292): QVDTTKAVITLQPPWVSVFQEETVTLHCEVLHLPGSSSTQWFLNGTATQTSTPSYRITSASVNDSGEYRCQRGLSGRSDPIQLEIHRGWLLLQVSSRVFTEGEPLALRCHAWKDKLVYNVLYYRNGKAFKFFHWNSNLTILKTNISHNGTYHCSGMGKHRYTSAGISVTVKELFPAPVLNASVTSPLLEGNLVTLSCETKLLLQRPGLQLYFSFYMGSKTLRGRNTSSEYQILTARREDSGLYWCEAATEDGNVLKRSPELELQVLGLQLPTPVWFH
T3 sequence (P08637 17-208 F176V): as the sequence (P08637 17-208) above, with F160V counted along it

Binder | binding result [1] | binding result [2] | binding result [3] | binding result [4] | binding result [5]
IL6R-BP253/IL6R-L (antibody, human IgG1, kappa, IL6R-B3 with S267E and L328F; also called IL6R-BP253/ILR-L) heavy: QVQLQESGPGLVKPSETLSLTCAVSGHSISHDHAWSWVRQPPGEGLEWIGFISYSGITNYNPSLQGRVTISRDNSKNTLYLQMNSLRAEDTAVYYCARSLARTTAMDYWGEGTLVTVSSASTKGPSVFPLAPSSKSTSGGTAALGCLVKDYFPEPVTVSWNSGALTSGVHTFPAVLQSSGLYSLSSVVTVPSSSLGTQTYICNVNHKPSNTKVDKKVEPKSCDKTHTCPPCPAPELLGGPSVFLFPPKPKDTLMISRTPEVTCVVVDVEHEDPEVKFNWYVDGVEVHNAKTKPREEQYNSTYRVVSVLTVLHQDWLNGKEYKCKVSNKAFPAPIEKTISKAKGQPREPQVYTLPPSRDELTKNQVSLTCLVKGFYPSDIAVEWESNGQPENNYKTTPPVLDSDGSFFLYSKLTVDKSRWQQGNVFSCSVMHEALHNHYTQESLSLSP light: not shown | binds | binds | binds |  | 
mutation A (antibody, human IgG1, kappa) heavy chain: not shown light chain: DIVMTQSPLSLPVTPGEPASISCQASESLVHSNRNTYLHWYLQKPGQSPQLLIYKVSNRFSGVPDRFSGSGSGTDFTLKISRVEAEDVGVYYCSQNTHVPPTFGQGTKVEIERTVAAPSVFIFPPSDEQLKSGTASVVCLLNNFYPREAKVQWKVDNALQSGNSQESVTEQDSKDSTYSLSSTLTLSKADYEKHKVYACEVTHQGLSSPVTKSFNRGEC |  |  |  | binds | no binding
